Data on 1 substance can be found in publication PMC5477539.

The subject of the series is DNA polymerase III core (alpha-epsilon-theta) (Escherichia coli). The series is described as follows: single-molecule optical tweezers; fit of exonucleolysis initiation rate vs protein concentration (two-step model). As to conditions: biotinylated oligonucleotide ligated at one end; Optical tweezers buffer, salt, pH and temperature not given in the material; constant template force (55 pN for k2).

Usually Kd stands for the equilibrium constant for the complex coming apart. In the case of “primer-template junction of single stretched DNA (8.1 kbp pBACgus11 construct or 38.5 kbp lambda DNA)”, the Kd was 130 nM.
